Measurements as given in paper PMC8012256.

Target: cross-linked CA A14C/E45C/W184A/M185A hexamer (HIV-1)
Assay: crystal structure

Substance	stoichiometry N (Sec24C(228–242) molecules per CA hexamer)	stoichiometry N
Sec24C(228–242) peptide (from UniProt P53992-1 228-242)	6	
cross-linked CA A14C/E45C/W184A/M185A hexamer (complex)		6
